Broadly, the stoichiometry N is the number of molecules, sites or subunits per partner or assembly.

1 substance from publication doi:10.1101/2024.09.23.614597 can be followed below.

The test addresses PelC lipoprotein (P. aeruginosa). Kind of test: cryo-EM structure.

Consider PelC lipoprotein (natural protein), for which the stoichiometry N was 12 subunits.
